This data set deals with F4 (K88) fimbriae on intact ETEC strain SP11 cells (Escherichia coli (ETEC-F4+, strain SP11)). Put plainly: whole-cell binding with qPCR quantification of eluted aptamer. The note with it: 138 mM NaCl, 20 mM Tris-HCl pH 7.4, 2.7 mM KCl, 1 mM CaCl2, 0.5 mM MgCl2, 0.1 mg/mL salmon sperm DNA, 30 min at 37 C, 500 rpm, washes with 0.05% Tween 20.

For orientation: Kd means the free concentration of one partner at which half of the binding sites on the other are occupied at equilibrium, for simple one-to-one binding. “CGTACGGTCGACGCTAGCACACTCTTTTGCTCGTGTTTTTGCCTGTTACATAAAATGAATCAGTGGATGTTTCCTTCTCACGTGGAGCTCGGATCC [Apt31]” yielded a Kd (intact SP11 cells, about 10^8 CFU/mL, 1 mM CaCl2, 0.5 mM MgCl2) of 81.8 nM.

With “CGTACGGTCGACGCTAGCGGAGACCGTACCATCTGTTCGTGGAAGCGCTTTGCTCGTCCATTAGCCTTGTGCTCGTGCCACGTGGAGCTCGGATCC [Apt37]”, the Kd amounted to 50.8 nM.
